Data: the nanobody polyreactivity screen of Harvey et al. (2022)

Experiment: yeast display, Sf9 membrane polyspecificity reagent, FACS + sequencing; frameworks hold sequencing errors
How it was run: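 Nanobodies came from a synthetic yeast display library in Saccharomyces cerevisiae BJ5465, induced with galactose for 36–48 hours and stained for 1 hour at 4 °C with 10% biotinylated, detergent-solubilized Sf9 membrane reagent. Cells were enriched on streptavidin microbeads and then FACS-sorted, with low and high (top ~1%) gates set on anti-HA fluorescence for expression and streptavidin fluorescence for reagent binding. Each polyreactivity label reflects the gate a clone came from. Genes were amplified by colony PCR, sequenced by MiSeq 2 × 250 and filtered by CDR length.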

| Sequence | polyreactivity (PSR sort gate) |
| --- | --- |
| QVQLVESGGGLVQPGGSLRLSCAASGRTSEIYTMGWYRPAPGKERELVASINTNSADSVKGRFTISRDNAKNTVYLQMNSLKPEDTAVYYCNADDTIEFNYWGQGTQVTVSS | low polyreactivity |
| QVQLVESGGGLVQAGGSLRLSCAAYGRTFHAYAKGWYRQAPGKGRELVAAITRTGTTHYADSVKGRFTISRDNAKNTVYLQMNSLKPEDTAVYYCAAQHVRVDAQFVLQGYDYWGQGTQVTVSS | low polyreactivity |
| QVQQQESGGGLVQAGGSLRLSSAASVTILYTLGLGLYRQAPGKTLEFVASITWGTTTNYAESVKGRFTISRDNAKNSVYLQMNSLKPEDTADYYCAARKFVYWYGMEYWGQGTQVTVSS | low polyreactivity |
| QVQLVESGGGLVQAGGSLRLSCAASGIFVSDAMGWYSQAPGKVRELVAAIRYSGDSTYYADSVKGRFTISRDNAKNTVYLQMNSLKPEDTAVYYCAATKGWTRYEYWGQGTQVTVSS | low polyreactivity |
| QVQLVESGGGLVQAGGSLRLSCAASGSIFRENAMGWYRQAPGKERELVAAITDGGDRTYYADSVKGRFTISRDNAKNTVYLQMNSLKPEDTAVYYCAARWLYWPRYNSLVYTHRDSWGQGTQVTVSS | low polyreactivity |
| QVQLVESGGGLVQAGGSLRLSCAASGRIFRGYAMGWYRQAPGKERELVADISSGASTNYADSVKGRFTISRDNAKNTVYLQMNSLKPEDTAVYYCAAQHSVLAYFEYDYWGQGTQVTVSS | low polyreactivity |
| QVQLVESGGGLVQAGGSLRLSCAASGRTFVSNAMGWYRQAPGKERELVATITVSSDSTYYADSVKGRFTISRDNAKNTVYLQMNSLKPEDTAVYYCAARNPTWSFQFDYWGQGTQVTVSS | low polyreactivity |
| QVQLVESGGGLVQAGGSLRLSCAASGSIFYRYVMGWYRQAPGKERELVAAITSDGSTNYADSVKGRFTISRDNAKNTVYLQMNSLKPEDTAVYYCNARSYRGRFDYWGQGTQVTVSS | low polyreactivity |
| QDQLVESGGGLVQAGGTLRLSCAASGSTFARYAMGWYRQAPGKERELVAAISRRGGSTYYADSVKGRFTISRDNAKITVDLQMNSLKPEDTAVYSCAARYGIISYLEYDYWGQGTQVTVSS | high polyreactivity |
| QVQLVESGGGLVQAGGSLRLSCAASGSISVRNVMGWYRQAPGKERELVATIRRTGGSTSYADSVKGRFTISRDNAKNTVYLQMNSLKPEDTAVYYCAAVGYTTYRRYDYWGQGTQVTVSS | low polyreactivity |
| QVQLVESGGGLVQAGGSLRLSCAASGSTFYDNTMGWYRQPPGKERELVAVITTDGDRTYYADSVKGRFTISRDNAKNTVYLQMKSLKPEDTAVYYCNARRAYWVVYPGDDYWGQGTQVSVSS | low polyreactivity |
| QDQHVESGGCLVQEGGSLRLSCAASGRTFSSNVMGWYRQAPGKVRELVASITWSGGTTYYADSVKGRFTISRDNAKNTVYLQMNSLKPEDTAVYYCNAADERSQGWVGYDHWGQCTQVTVSS | low polyreactivity |
| QVQLVESGGGLVQAGGSLRLSCAASGSISSKNAMGWYRQAPGKEREFGAVISGTGGSTYYADSVKGRFTISRDNAKNTVYLQMNSLKPEDTAVYYCAAAASSIVSYGYTWTYGYWGQGTQVTVSS | low polyreactivity |
| QVQLVESGGGLVQAGGSIRLSCAASGGTFGYYVMGWYRQAPRKERELVAAITSGGSTKYADSVKGRFTISRDNAKNTVYLQMNSLKPEDTAVYYCAADVTRREPYQSYDYWGQGTQVTVSS | low polyreactivity |
| QVQLVESGGGLVQAGGSLRLSCAASGRTFYRNAMGWSRQAPGKERELVAAISSTGSTYYAESVKGRFTSSRDNAKNTVYLQMNSLKPEDTAVYYCARGVHGIFGYLGQGTQVTVSS | low polyreactivity |
| QVQLVESGGGLVQAGGSLRLSCAASGFIFYRYAMGWYRQAPGKERELVAAISYSGGSTYYADSVKGRFTISRDNAKNTVYLQMNSLKPEDTAVYYCAKGLTALGDYWGQGTQVTVSS | high polyreactivity |
| QVQLVESGGGLVQAGGSLRLSCAASGSIVTSYAIGWYRQAPGQERELVATITRRGGSTYYADSVKGRFTISRDNSKNTVYLQMNSLKPEDTAVSYCTARSSTIVYAGDYWGLGTQVTVSS | low polyreactivity |
| QVQLVESGGGLVQAGGSLRLSCAASGSTFTYNAMGWYRQAPGKERELVAAISWSGGRTYYADSVKGRFTISRDNATNTVYLQMNSLKPEDTAVYSCAAKYRYSTYSFPYDYWGQGTQVTVSS | high polyreactivity |
| QVHLVESGGGLVQAGGSLRLSCAASGRIFNYYAMGWYRQAHGKERELVAAISNGGSTYYADSVKGRFTISRDNAKNTVYLQMNSLKPEDTAVYYCNAAARNGYARRVYYWGQGTQVTVSS | high polyreactivity |
| QVQLVESGGGLVQAGGSLRLSCAASGRIFSTYAMGWYRQAPGKERELVAAISYSGTTTYYADSVKGRFTISRDNAKNTVYLQMNSLKPEDTAVYYCAAYRYSTWSYGRDYYWGQGTQVTVSS | high polyreactivity |
| QVQLVESGGGLVLAGGSLRLSCAASGSTFIWNAMGWYRQAPGKERELVAAIRRGSSTNYADSVKGRFTISRDNAKNTVYLQMNSLKPEDTAVYYCAKKQVTTDVSSETFVLEMDYWGQGTQVTVSS | low polyreactivity |
| QVQLVESGGGLVQAGGSLRLSCAASGGIFYFYAMGWSRQAPGKERELVAAISSNGGRTYYADSVKGRFTISRDNAKNTVYLQMNSLKPEDTAVYYCNAVSRVSDRHLATYDYWGQGTQVTVSS | high polyreactivity |

| Sequence | polyreactivity (PSR sort gate) |
| --- | --- |
| QVQLVESGGGLVQAGGSLRLSCAASGRIFSYYAMGWYRHAPWKERELVAAISRSGAKTYYADSVKGRFTISRDNAKNSVYLQMNSLKPEDTAVYYCNADTLRRRYNYWGQGTQVTVSS | high polyreactivity |
| QVQLVESGGGLVQAGGSLRLSCAASGFIFPLYTMGWYRQAPGKERELVAAISVTGGSTYYADSVKGRFTISRDNAKNTVYLQMNSLKPEDTAVYYCNAYLFFLNRVWSFDYWGQGTQVTVSS | high polyreactivity |
| QVQLEESGGGLVQAGGSLRLSCAASGSTIKTYATMGWYRQAHGKERELVAAITSGSSTNYADSVKGRFTISRDTAMNTDYLQMNSLKPEDTAVYYGAADDYYNWYLGEPGDYLGQGTQVTVSS | low polyreactivity |
| QVQLVESGGGLVQAGGSLRLSCAASGRIFRVYAMGWYRQAPGKERELVAAISSSGSSTYYADSVKGRFTISRDNAKYTVYLQMNSLKPEDTAVYYCAARGYDISSRYDYWGQGTQVTVSS | high polyreactivity |
| QVQLVESGGGLVQAGGSLRLSCAASGSTFTRNAMGWYREAPGTERELVAAISFSGGSTYYADSVKGRFTISRDNAKNTVYLQMNSLKPEDTAVYYCATKVEYRYYYWGQGTQVTVSS | high polyreactivity |
| QVQLVESGGGLVQAVGSLRLSCAASGSTLVYYAMGWYRQAPGKERELVATITRSGGNTYYADSVKGRFTISRDNAKNTVYLQMNSLNPEDTAVYYWAARRLYGSQRGYWGQGTQVTVSS | high polyreactivity |
| QVQLVESGGGLVQAGGSLRLSCAASGFTFGYYAMGWYRQAPGKERELVAAITWNGGSTYYADSVKGRFTISRDYAKNTVYLQMNSLKPEDTAVYYCAAVYKYIQRYDYWGQGTQVTVSS | high polyreactivity |
| QVQLVESGGGLVQAGGSLRLSCAASGRIFSYYAMGWYRQAPGTERELVAAISWSGSRTNYADSVKGRFTISRDNAKNTVYLQMKSLKPEDTAVYYCAAEDWSTQGSATVQYDYWGQGTEVTVSS | high polyreactivity |
| QVQLVESGGGLVQAGGSLRFSCADSGSIFVRYAMGWYRQAPGKERELVAAISVRGGRTYYADSVKGRFTISRDNAKNTVYLQMNSLKPEDTAVYYCAAQLYYYYTYVPPGGYWGQGTQVTVSS | high polyreactivity |
| LVQLVESGGGLVQAGGSLRLSCAASGSIFRRYAMGWYRQAPGKERELVAAISRNSGRTYYADSVKGRFTISRDNAKNTVYLQTNSLKPEDTAVYYCAKLTLSSRWYYIYDYWGQGTQVTVSS | high polyreactivity |
| QVQLVESGGGLDQAGGSLRLSCAASGSTFDYYARGWYRQAPGKERELVAAISSSGGSTYYADSVKGRFTISRDNANYTVYLQRNSLKPEDTAVYYCNKYGGTLRSDYWGQGTQVTVSS | high polyreactivity |
| QVQLVESGGGLVQAGGSLRLSCAASGRTFIYYAMGWYTQAPRKERDYVAIITWNGTSTNYADSVKGRFTISRDNAKNTVYLQMNSLYPEDTAVYYCAASFWTDYYRYDYWGQGTQVTVSS | low polyreactivity |
| QVQLVESGGGLVQAGGSLRLSCAASGSIFYSYAMGGYRQAPGKERELVAAITDSGDSTYYADSVKGRFTISRDNAKNTVYLQMNSLKPEDTAVYYCAAGFYPYYYWGQGTQVTVSS | low polyreactivity |
| QVQLVESGGGLVQAGGSLRLSCAASGSTFYLYAMGWYRQAPGKERELVASITSGDGSTYYADSVKGRFTISRDNAKNTVYLQMNSLKPEDTAVYYCNAVLEGWFYQYDYWGQGTQVTVSS | low polyreactivity |
| QVQLVESGGGLVQAGGSLRLICAASGSTIAVYAIGWYRQAPGKERELVASISFSVVSTSYADSVKGRFTISRDNAKNTVYLQMNSLKPEDTAVYYCSTYYVRASYRYDYWGQGTQVTVSS | high polyreactivity |
| QVHLVESGGGLVQAGGSLRLSCAASGRNFAYNAMGWYRQAPGKETELVASFTSGGSTNYADSVKGRFTISRDNANNTVYLQMNSLKPEDSAVYYCNKDGKYHRVLYDYWGQGTQVTVSS | low polyreactivity |
| QVQLVESGGGLVQAGGSLRLSCAASGRIFADNAMGWYRQAPGKERELVADITYSGGSTYYADSVKGRFTISRDNAKNTVYLQMNSLKPEDTAVYSCAKQGVDYWGQGTQVTVSS | low polyreactivity |
| QVQLVESGGRLVQAGGSLRLSCAASGSTSTLYAMGWYRQAPGKERELVAAISKSGGRTYYADSVKGRFTISRDNAKNTVYLQMNSLKPEDTAVYYCNTVPGRYRTFDYWGQGTQVTVSS | high polyreactivity |
| QVQLVESGGVLVQAGGSLRLSCAASGFTFYRYDMGWYRQAPVKERELVAAITWSGGSTYYADSLKGRFTISRDNAKNTVYLQMNSLKPEDTAVYDCAAENYDGGFEYWGLGTQVTVSS | low polyreactivity |
| QVQLVESGGGLVQAGGRLRLSCAASVRTFYYYVMGWYRQEPGNERELVAAISSGGSTYYADSVKGRFTISRDNAKNTVYLQMNSLKPEDTAVYYGAATKRYRDSYDYDYWGQGTQVTVSS | high polyreactivity |
| QVQLVESGGGLVQAGGSLRLSCDASGIIIRWYAMGWYRQAPGKERELVAAITSSGGRTYYADSVKGRFTISRDNAKNTVYLQMNSLKPEDTAVYYCAAQRYSHLYRGRFAYRYYYWGQGTQVTVSS | high polyreactivity |
